Experimental data: the DeepSol protein solubility set

Assay: soluble on expression in E. coli; label from the status in PepcDB or PDB records

Sequence | soluble on expression in E. coli
MGSDKIHHHHHHKDDDNVETGAFDPSKPVAISDFTPKEGGAYQKLLIYGENFGTDVSKVKVKIGGKDAIVINVKSTYVYCFVPSGAFSGEIEITVGEGENAVTTTASTTFSYEKKMVVGTLCGYRNNRDDQGWRDGPFDGPEGVKCCGFSDNGRLAFDPLNKDHLYICYDGHKAIQLIDLKNRMLSSPLNINTIPTNRIRSIAFNKKIEGYADEAEYMIVAIDYDGKGDESPSVYIIKRNADGTFDDRSDIQLIAAYKQCNGATIHPINGELYFNSYEKGQVFRLDLVDYFKTIKNGGSWDPIVKNNPNTFKQLFTIADPSWEFQIFIHPTGKYAYFGVINNHYFMRSDYDEIKKEFITPYNFVGGYKQSGYRDDVGTEARMNNPCQGVFVKNPDYTGEEEYDFYFVDRLNFCVRKVTPEGIVSTYAGRGASTSLADGNQWGTDDGDLREVARFRDVSGLVYDDVKEMFYVHDQVGHTIRTISMEQEENVAGDENIPEDESTVESNE | not soluble
MSLVSSLSFNFAPDFRPLAARMRPRTIAEYIGQAHLLGEGQPLRQALEAGRAHSMMLWGPPGTGKTTLAELIAHYSNAHVERISAVTSGVKDIRGAIEQAQAIAQSRGQRTLLFVDEVHRFNKSQQDAFLPFIEDGTVIFIGATTENPSFEINNALLSRARVYLIKRLSQDEIVHIITQALADTERGLGQRALNMPTDVLNKLAQLCDGDARKALNLLELMSDMVADGGTFTTEMLVQVAGHQVAGFDKNGDQFYDLISAVHKSIRGSAPDAALYWFCRILEGGGDPLYVARRLLAIASEDVGNADPAAMTIALNAWECFHRVGPAEGERAIAQAIVYLASAPKSNAVYTAFKAARALARETGQEAVPYHLRNAPTKLMAEMGFGAEYRYAHDEPNAYASGENYFPESLKESQFYFPTERGFEKRIKDKLVQLAQLDQASGRKREGHHHHHH | soluble
MTYRIKKWQKLSTITLLMAGVITLNGGEFRSVDKHQIAVADTNVQTPDYEKLRNTWLDVNYGYDKYDENNPDMKKKFDATEKEATNLLKEMKTESGRKYLWSGAETLETNSSHMTRTYRNIEKIAEAMRNPKTTLNTDENKKKVKDALEWLHKNAYGKEPDKKVKELSENFTKTTGKNTNLNWWDYEIGTPKSLTNTLILLNDQFSNEEKKKFTAPIKTFAPDSDKILSSVGKAELAKGGNLVDISKVKLLECIIEEDKDMMKKSIDSFNKVFTYVQDSATGKERNGFYKDGSYIDHQDVPYTGAYGVVLLEGISQMMPMIKETPFNDKTQNDTTLKSWIDDGFMPLIYKGEMMDLSRGRAISRENETSHSASATVMKSLLRLSDAMDDSTKAKYKKIVKSSVESDSSYKQNDYLNSYSDIDKMKSLMTDNSISKNGLTQQLKIYNDMDRVTYHNKDLDFAFGLSMTSKNVARYESINGENLKGWHTGAGMSYLYNSDVKHYHDNFWVTADMKRLSGTTTLDNEILKDTDDKKSSKTFVGGTKVDDQHASIGMDFENQDKTLTAKKSYFILNDKIVFLGTGIKSTDSSKNPVTTIENRKANGYTLYTDDKQTTNSDNQENNSVFLESTDTKKNIGYHFLNKPKITVKKESHTGKWKEINKSQKDTQKTDEYYEVTQKHSNSDNKYGYVLYPGLSKDVFKTKKDEVTVVKQEDDFHVVKDNESVWAGVNYSNSTQTFDINNTKVEVKAKGMFILKKKDDNTYECSFYNPESTNSASDIESKISMTGYSITNKNTSTSNESGVHFELTK | not soluble
MSLQQAVGMYVEAPTPDEAARLINSGRKLGIVIAVGVCEVFYTGRAAASLGPTRRLVILKRDGTLLVHEAEKAQPKIWNPPGSSTAAYVEGGKLVVKSIRSRPFETVRVIFDKVDFIAAFDVGATELTLVGSERDVVGALVKNPSIIEEGLEVVGVEVPTDVGHLDILARDKNGRYVIIEVKRDLATHEAVFQLARYVELYRRKGYDVRGILVAGDITASAYDYLKRYGLNFVKINPRELMVLTNKNPLNAKEGHHHHHH | soluble
MPLFKERNCSVSIVLDSRTRRKNAYEFPLSLRFTIDRKFFYLTVGSSFSEKKFSDICNATKCKSENYKLQKEWKDTFVPKYKKVLSNLNKGGILTFEMVRQCIIGEDVVLSEEETTKSQSFISIWEQVINGFKTDDGGARFTTAESYECALKSFRKILGANTIKGFCISAAEIQKWKDGMHNGVKDENGAVVGKISDTTVGIYLRCCRAVWNRCVHEGFLKDIPYPFSNKKEKGLVSIPKSAKRKQNFLNVAQMTELYNLFVSKEYPEHWTEEYTQRAHYSLGLFLAQYLCNGFNMADAGRLTYDNYYYKTDGKAFRFNRKKTSRRSADGSEVIVPIIPPLQYVLDEIAAPPTRDGFVFPDILKGAETEELRRKYTVQENSNVKDRVIKICHEALHWDKSICPSGTWCRHSFATNLHNAGVDMDYISESMGHASSDHAITQIYIEHYPLDIQMQNNSKLLNLGETSERDALLAKLANMSTEELAKLFA | not soluble
SKPSKPFNVDDVLKFTFTGEKHHHHHH | soluble
MSGESVIEFTGFIKACRLFRENRLAEAEAVCTNLLRKNPLDQATWALKMQCLSDSTYVDELENEDMGLAETFLDQNVIAPNARPGTSFARPKTSAKGVNPILRPTTNAGRPLSGVVRPQSSFKSGSMDQAVRTARTAKTARAVSSTSARNMRLGTASMAAGADGEFVNLARLNIDKYAADPQVNRQLFEYVFYYLNDIRVAHQIAGTASKAAGFEDYYWKNQLAKCYLRLGMLQDATKQLQSSLEQKKLIETFALLSKAYNRVDQPMAALKTYSAGLEVFPENVTMLTGMARVQEALGEYDESVKLYKRVLDAESNNIEAIACVATTYYYGGKPELAMRYYRRILQMGVSSPELFLNIGLCCMAAQQFDFALSSILRAQSTMTDDVAADVWYNIGQILVDIGDLVSAARSFRIALSHDPDHSESLVNLGILKHREGKIDEARSLYSSATSKNPYMFEGNYNLGLVSFTQGKYHECRELIEKALAAFPEHEHCKKILNHLKPLYESI | not soluble
MKQCAHTKVWQTIVAEAREQAEQEPMLASFYHATIIKHDSLKAALSYILANRLNTASMPAMAVREVIEEAFAADPSISEAAACDICATVNRDPAVSMYSMPLLYLKGYHALQGYRVANWLWRQGRKALATYFQNQISVACQVDIHPAARIGRGIMLDHATGIVIGETAVVEDDVSILQDVTLGGTGKECGDRHPKIREGVMIGAGAKILGNIEVGEGAKIGSGSVVLQAVPPHTTVAGVPARIVGRPQSDKPSLDMDQQFNGRSQTFIGGDGI | not soluble
MSLSHSEKDVHEMGRFLLSTIKGSILELAFSHGEVEGLSFEKKVTILEIEDLDLPTDRHDELDENQRLSVTLMFALGTFCSKFGSRNRKEETVTFFDEAWIFQSSPEGQKILKSMKRIGRSFNNFMVLITQSVNDVLDNGDGTGFGTVVCFDEVDNREGILRYLKLPVNEINLKWVSNMIQGQCLMKDMFNQVNRIVIDVIFEEWLELFETVDEGHHHHHH | not soluble
GAMGKTVSQSQRLEHNWNKFFASFVPNLIKKNPQSKQFDHENIKQCAKDIVKILTTKELKKDSSRAPPDDLTKGKRHKVKEFINSYMDKIILKKKQKKALGLSS | soluble
MGSDKIHHHHHHMSEALTIAGVDIQPGTQHQLELPVASLYTDTQVSIPVHVIRAKKDGPKVFVSAAVHGDELNGIEIIRRLIQSKLKLLKGTLILVPMVNVYGVLNQSRYMPDRRDLNRCFPGSPKGSLAGRVAYTFLNSIVQHCDYGIDLHTGAIHRSNLPQIRANLDDEQTLALAQAFGVPVLLNANVRDGSLREAAVNKGTRVLLYEAGQALRFDELSIQTGERGILNVLSSLGLIRKRRLRKKIEPFIANRSDWTRASASGFVCEFAKLGAYVEKGQVLAEINSPLGELIQSVVSNRTGIVIGKQNIPLVLEGDAMFHVAYFGSAADEVAEHIEIMNDQIMPLTTQTI | not soluble
GSPEKILAQIIQEHREGLDWQEAATRASLSLEETRKLLQSMAAAGQVTLLRVENDLYAISTERYQAWWQAVTRALEEFHSRYPLRPGLAREELRSRYFSRLPARVYQALLEEWSREGRLQLAANTVALAGFTPSFSETQKKLLKDLEDKYRVSRWQPPWVKEVAGSFNLDPSELEELLHYLVREGVLVKINDEFYWHRQALGEAREVIKNLASTGPFGLAEARDALGSSRKYVLPLLEYLDQVKFTRRVGDKRVVVGN | soluble
MQRQEQLKKWLAEQYPGDEIQLEFAAADADFRRYFRAIWPDGASRIVMDAPPEHIGTDAYVKVRDIFSMVKVPEIYLRDRDQGFIVMEDLGKVTYLAALQHDERPFVHRHLLLEALDTLVDIQKASQPEVLPEYDETLLTRELNLFPEWFCAKELGKPLNFKQRQLWDAGVQALLPALLTQPKVFVHRDFIVRNLMLTPGTPGVLDFQDAVYGPISYDAVSLLRDAFIEWDEEFVLDLAIRYWEKARAAGLPVPEAFDDFYRAFEWMGVQRHLKVAGIFARLYHRDGKDKYLAEIPRFIKYLKRTTRRYAELAPFYQLLVDLVGRDATDEELQSSYPVLGVKGHLEHHHHHH | not soluble
MAHHHHHHMACDFELPLFAAPCSEVLSTQMSVVDGKMAEKSDKAKRTARASACMIRKGFFSHFPQAILTSPESGIKTAPHPWSNASLMMAADAFSVGLMLRLRLFSIICRNPSPKPTAAGGRFAGYVFCTIPRLSADNCRRTALLKKSWSYKRMPKMAAKYKKRDAVTSISAMVKELSAGMARTDRRNFSLRDTVW | not soluble
MTTGNLQVAIYGFTARSRAFEPAGICYETRLIRDKLTLGHCTLPIYKNSPVAKPVTEQQRKKSSEEPAELRKDLFDADNEKYEKYLMKLDPNDCKNQDHYKVLGLSKLRWQATSDEIRFCYRQKVLKHHPDKKKHRGIVMEKEEYFTCITKAYEQVGMSDVKRQAFDSVDHKFNDIIPNEKSINHNNFYNELAPVFQLNSRWSNIKPVPELGKSDATREDVENFYDFWFNFQSWREFSYLDEEDKERGEDRYERREMEKQNKAERERRRKEEAKRIRKLVDIAYAKDPRIIKFKKEQQAKKDKAKEDKQRAIREKQEAIDREKREKEEAEAKQKEEADRKAKEEREREKKERDIAKKAMSQQRKRLKKLADEAGHWTENPRDKLTEMERIERICIGFTVDQLRELCEKVESLSIASEIQTALTDAEILKKEAAGAKVTITEDKNKENEKQADKETWTSEEIQLLVKASNTFPPGTVERWVQIADYINEHRKDSTGLPPKTEKQVIKQCKAVQTMNVKLPSTTQNQLGTALPDEDVWSATEQKTLEDAIKKHKSSDPERWEKISTEVGTKSKKACIRRFKYLVQMVKNKK | not soluble
MLEANVYDNFNPNYYNISDFSMPNGKKEKRGLPIPKARCQVINYELWETGYLYTSSATLTVSVEVGDIVQILFPEVVPIEEALGKKKKLNLDMVYLVTDVDESNKATLKNYFWAMIESLDVPNAITKTTNFAIIDYLIDPNKNNLMSYGYFFNSSIFAGKATINRKAETSSAHDVAKRIFSKVQFQPTTTIQHAPSETDPRNLLFINFASRNWNRKRITTRVDIKQSVTMDTETIVERSAYNFAVVFVKNKATDDYTDPPKMYIAKNNGDVIDYSTYHGDGTDLPDVRTAKTLFYDRDDHGNPPELSTIKVEISPSTIVTRLIFNQNELLPLYVNDLVDIWYEGKLYSGYIADRVKTEFNDRLIFVESGDKPNVI | soluble
MGSDKIHHHHHHMINAEPIISKMKNQKINYDKVLKKLIGQWEREAIRPKILLHSCCAPCSTYTLEFLTQYADIAIYFANSNIHPKNEYLRRAKVQEQFVEDFNRKTGANVKYIEAPYEPHKFVKMVKDKELADEKEGGLRCTACFEMRLDIVAKAAVEHGYDYFGSAITLSPKKNAQLINELGMDVQKIYDVNYLPSDFKKSKGYERSIEMCNDYNIFRQCYCGCVFAAMQQGIDFKTVNKEAKAFLEQYPD | not soluble
